The record followed here is paper PMC10786891, “Massively parallel profiling of RNA-targeting CRISPR-Cas13d”.

Where a chain is given by its changes, count along the chain named. Names and notes keep the numbering of the source.

The chains are these.
T1: EsCas13d, nuclease-dead (Eubacterium siraeum, UniProt B0MS50, R295A;H300A;R849A;H854A)
T1 sequence: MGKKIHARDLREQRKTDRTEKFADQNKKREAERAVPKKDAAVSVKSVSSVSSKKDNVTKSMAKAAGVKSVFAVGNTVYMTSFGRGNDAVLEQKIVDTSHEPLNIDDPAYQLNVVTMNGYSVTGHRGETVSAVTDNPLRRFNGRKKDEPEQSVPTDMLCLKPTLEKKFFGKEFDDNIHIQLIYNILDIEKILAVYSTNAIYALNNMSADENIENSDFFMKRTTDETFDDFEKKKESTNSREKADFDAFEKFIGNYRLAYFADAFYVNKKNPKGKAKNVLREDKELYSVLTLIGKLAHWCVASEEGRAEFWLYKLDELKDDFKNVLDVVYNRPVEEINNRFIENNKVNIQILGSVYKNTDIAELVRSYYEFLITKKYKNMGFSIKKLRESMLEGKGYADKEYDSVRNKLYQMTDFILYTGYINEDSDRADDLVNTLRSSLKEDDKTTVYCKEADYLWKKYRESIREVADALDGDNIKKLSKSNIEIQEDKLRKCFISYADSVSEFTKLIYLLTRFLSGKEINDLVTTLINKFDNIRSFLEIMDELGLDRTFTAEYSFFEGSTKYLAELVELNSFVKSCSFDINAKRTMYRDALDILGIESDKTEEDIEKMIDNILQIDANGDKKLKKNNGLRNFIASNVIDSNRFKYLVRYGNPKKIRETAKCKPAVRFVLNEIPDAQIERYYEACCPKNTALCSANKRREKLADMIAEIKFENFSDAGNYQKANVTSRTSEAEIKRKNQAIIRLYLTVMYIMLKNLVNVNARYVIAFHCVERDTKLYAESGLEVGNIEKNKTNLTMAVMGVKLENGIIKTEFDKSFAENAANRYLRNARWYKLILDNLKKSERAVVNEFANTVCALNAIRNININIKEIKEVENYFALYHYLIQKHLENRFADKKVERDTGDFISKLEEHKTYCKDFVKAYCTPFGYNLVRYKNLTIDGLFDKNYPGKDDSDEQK

B1: target 1 insU 3' of 4,insA 3' of 3 (mixed)
RNA 1: CACCCGUGCAAAAAUGCAGGGGUCUAAAACUGAGCGGAUAACCUCUCUAUGG
RNA 2: GGGAAUGGAUCCACAUCUACGAAUUCGUACCAUAGAGAGGUUAUCCGCUUACACCGAGAUCGGAAGAGCACACGU
B2: target 1 A1G,A9C (mixed)
RNA 1: B1 RNA 1
RNA 2: GGGAAUGGAUCCACAUCUACGAAUUCGUACCAUAGAGAGGUUCUCCGCUCGCCGAGAUCGGAAGAGCACACGU
B3: target 2 MT 5'PFS GUA 3'PFS ACC (mixed)
RNA 1: CACCCGUGCAAAAUUGCAGGGGUCUAAAACCUUCUCCAAAUUGUUUCAUCCU
RNA 2: GGGAAUGGAUCCACAUCUACGAAUUCGUAAGGAUGAAACAAUUUGGAGAAGACCAGAUCGGAAGAGCACACGU
B4: target 2 MT 5'PFS GAA 3'PFS UAC (mixed)
RNA 1: B3 RNA 1
RNA 2: B3 RNA 2 with U28A, A52U, C53A
B5: target 2 MT 5'PFS CUG 3'PFS CAA (mixed)
RNA 1: B3 RNA 1
RNA 2: B3 RNA 2 with G27C, A29G, A52C, C53A, C54A
B6: target 2 MT 5'PFS AAA 3'PFS AUG (mixed)
RNA 1: B3 RNA 1
RNA 2: B3 RNA 2 with G27A, U28A, C53U, C54G
B7: target 2 MT 5'PFS CAC 3'PFS CAG (mixed)
RNA 1: B3 RNA 1
RNA 2: B3 RNA 2 with G27C, U28A, A29C, A52C, C53A, C54G
B8: target 2 MT 5'PFS GAA 3'PFS UAA (mixed)
RNA 1: B3 RNA 1
RNA 2: B3 RNA 2 with U28A, A52U, C53A, C54A
B9: target 2 MT 5'PFS GUA 3'PFS ACA (mixed)
RNA 1: B3 RNA 1
RNA 2: B3 RNA 2 with C54A
B10: target 2 MT 5'PFS AAA 3'PFS AUU (mixed)
RNA 1: B3 RNA 1
RNA 2: B3 RNA 2 with G27A, U28A, C53U, C54U
B11: target 2 MT 5'PFS UUG 3'PFS UAC (mixed)
RNA 1: B3 RNA 1
RNA 2: B3 RNA 2 with G27U, A29G, A52U, C53A
B12: target 2 MT 5'PFS CAC 3'PFS CAC (mixed)
RNA 1: B3 RNA 1
RNA 2: B3 RNA 2 with G27C, U28A, A29C, A52C, C53A
B13: target 2 MT 5'PFS CAC 3'PFS CAU (mixed)
RNA 1: B3 RNA 1
RNA 2: B3 RNA 2 with G27C, U28A, A29C, A52C, C53A, C54U
B14: target 2 MT 5'PFS UUG 3'PFS UAU (mixed)
RNA 1: B3 RNA 1
RNA 2: B3 RNA 2 with G27U, A29G, A52U, C53A, C54U
B15: target 2 MT 5'PFS GUA 3'PFS ACG (mixed)
RNA 1: B3 RNA 1
RNA 2: B3 RNA 2 with C54G
B16: target 2 MT 5'PFS AAA 3'PFS AUC (mixed)
RNA 1: B3 RNA 1
RNA 2: B3 RNA 2 with G27A, U28A, C53U
B17: target 2 MT 5'PFS GGC 3'PFS UAA (mixed)
RNA 1: B3 RNA 1
RNA 2: B3 RNA 2 with U28G, A29C, A52U, C53A, C54A

For this data set, the target named is T1, EsCas13d, nuclease-dead. The experiment in a line: crRNA (strand 1, pre-loaded); Mg2+; 40 mM Tris-HCl pH 7.5, 150 mM NaCl, 6 mM MgCl2, 1 mM DTT, 0.1% Tween-20, 0.2 mg/ml BSA; 25 C; 10 min per concentration, then washed. The following applies: tags: His6-TwinStrep-SUMO cleaved; N-terminal SNAP kept (SNAP-Surface 488); label: 3' end held by stalled T7 RNA polymerase.
Consider B1, for which the dissociation constant Kd (in general, a measure of binding affinity in units of concentration) amounted to 8 ± 0.3 nM.

Regarding B2, the Kd was found to be 13.7 ± 2.3 nM.

Molecule B3 registered a Kd of 22 ± 4 nM.

For the molecule B4, binding was put at a Kd of 12 ± 4 nM.

B5 came in with a Kd of 2.4 ± 0.4 nM.

Molecule B6 displayed a Kd of 4.4 ± 0.8 nM.

Molecule B7 showed an equilibrium dissociation constant (Kd) of 1.3 ± 0.23 nM.

As to B8, binding was characterised by a dissociation constant (Kd) of 7.3 ± 1.5 nM.

In turn, B9 gave a Kd of 10.7 ± 1.6 nM.

B10 gave a Kd of 5.2 ± 1 nM.

Regarding B11, binding was characterised by a dissociation constant (Kd) of 14.3 ± 1.2 nM.

For the molecule B12, the Kd is 2.9 ± 0.4 nM.

Turning to B13, the dissociation constant Kd is 3.5 ± 0.4 nM.

For B14, the affinity, expressed as Kd, was 8.6 ± 0.8 nM.

In turn, B15 gave a Kd of 10.6 ± 0.9 nM.

As to B16, binding was characterised by a dissociation constant (Kd) of 3.6 ± 0.7 nM.

In turn, B17 had a dissociation constant Kd of 9.4 ± 1.2 nM.
